Residue numbers refer to the chain shown, from its start.
Legend:
[1] = target: T1, Tag-free human IL6 recombinant protein (GenScript, Cat. No. Z03034) (human, UniProt P05231 30-212); test: indirect ELISA, IL6 coated at 0.5 µg/ml, antibody titrated
T1 construct: Bought recombinant protein; The catalogue number is printed only for the immunogen, and the assays say only 'recombinant IL6 protein' or 'IL6'; also called recombinant IL6 protein; Interleukin 6
Procedure: The purified antibodies were evaluated for the binding ability to IL6 by indirect ELISA. The ELISA plate (Nunc) was coated with 0.5 μg/ml recombinant IL6 protein in PBS at 100 μl/well at 4° C. overnight. The plate was washed with PBS-T (0.05% Tween) and was blocked with PBST containing 1% BSA at 200 μl/well at 37° C. for 0.5 h. The blocking solution was then discarded. 100 μl 10 μg/ml purified antibody was added to the first well, and 3-fold gradient dilution was performed for 11 test concentration gradients in total. Incubation was then performed at room temperature for 1 h. The plate was washed with PBST for three times and incubated with horseradish peroxidase-conjugated goat anti-mouse/rat IgG (Fab-specific) (GenScript) at 100 μl/well at 37° C. for 0.5 h. The plate was washed with PBST for five times, and TMB chromogenic solution (GenScript) was then added and incubation was performed in dark for 15 min at room temperature. The reaction was stopped by adding 50 μl 1M HCl stop solution (Sigma). The plate was read at 450 nm by a microplate reader. The binding ability of the clones 8H10B7E6, 23A9H3, 29D6B5, 41A10B8, 49F10H6, 53A2F9 (rat), and 61G1D8 (rat) for recombinant protein IL6 was shown in FIG. 3.

[2] = target: T1, Tag-free human IL6 recombinant protein …; test: cell-based or functional assay

B1: 49F10H6 (antibody, V domains shown)
VH: QVQLQQPGAELVKPGASVKMSCKASGYTFTNYIIHWIKQTPGQGLEWIGAIYPGNGDTSYSQKFKDKATLTADRSSSTAYMQLSSLTSEDSAVYYCARGDAGYSAWFAYWGQGTLVTVSA
VL: NIVLTQSPASLAVSLGQRATISCSASESVDSYGNNFMHWYQQRPGQPPKLLIYLASKLESGVPARFSGSGSRTEFTLTIDPVEAEDAATYYCQQNNEDPLTFGAGTKLELK
notes: Mouse hybridoma clone; Made recombinantly in HEK293-6E cells as variable region + constant region and purified on protein A as IgG
- EC50 [1]: < 0.025 µg/mL

B2: 41A10B8 (antibody, V domains shown)
VH: EVKLEESGGGLVQPGGSMKLSCAASGFTFSDAWMDWVRQSPDKGLEWVAEIRSKTYHPATYYTKSVRGRFTISRDDSKSSVYLQMNNLGAEDTGIYYCTRPRYYGGYFDYWGQGTTLTVSS
VL: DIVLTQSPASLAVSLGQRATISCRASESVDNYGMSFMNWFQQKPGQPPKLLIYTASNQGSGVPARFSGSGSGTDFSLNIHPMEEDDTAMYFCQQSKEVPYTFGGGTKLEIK
notes: as for B1
- EC50 [1]: < 0.025 µg/mL

B3: 61G1D8 (rat) (antibody, V domains shown)
VH: EVQLLESGGGLVQPGRSMKLSCAASGFTFSSFPMAWVRQTPSKALEWVATISPSGGTSYSRDSVKGRFTISRDNANSTLCLHMDSLKSEDTATYYCLRERIYNTYFDYWGQGVMVTVSS
VL: DIRMTHSPASLSASLGETVSIECLPSEDISSDLAWYQQKPGKSPQLLIYNANTLPNGVPSRFSGSRSGAQYFLKINSLQSEDVATYFCQQYDSYPYTFGTGTKLELK
notes: Rat hybridoma clone; Made recombinantly in HEK293-6E cells as variable region + constant region and purified on protein A as IgG
- inhibitory IC50, IL6-dependent TF-1 cell proliferation [2]: 4.54 µg/mL
- EC50 [1]: < 0.025 µg/mL

B4: 23A9H3 (antibody, V domains shown)
VH: QVQLQQSGAELAKPGASVKMSCKTSGYTFTNYWMHWVKQRPGQGLEWIGYVIPSTGYTDYNQSFKDKATLTADKSSNTAYMQVNSLTSEDSAVYYCASLLPGFAYWGQGTLVTVSA
VL: DVVMTQTPLSLPVSLGDQASISCRSSQSLVDSNGNTYLHWYLQKPGQSPKLLIYKVSNRFSGVPDRFSGSGSGTDFTLKISRVEAEDLGVYFCSQSTHVPPTFGGGTKLEIK
notes: as for B1
- EC50 [1]: < 0.025 µg/mL

B5: 29D6B5 (antibody, V domains shown)
VH: QVQLQQSGAELAEPGASVKMSCKASGYNFNNYWMHWVKQGPGQGLEWIGYIDPRTASIYYNQKFKDKATLTADKSSSTAYMQLSSLTSEDSAVYYCARILYGKYDVWGAGTTVIVSS
VL: B4 VL with M4L, D17N, L51V, Y54H
notes: as for B1
- EC50 [1]: < 0.025 µg/mL

B6: 53A2F9 (rat) (antibody, V domains shown)
VH: QVQLKESGPGLVQPSQTLSLTCTVSGFSLTSHTVSWIRQPPGRGLEWMGKMWSNGDTDYDSAIRSRLSITRDTSKSQVFLKINSLQTEDTAMYFCARYYFSSYGGGYFDYWGQGVMVTVSS
VL: DTVLTQSPALAVSLGQRVTISCRASKSVSTYMHWYQQKSGQQPKLLIYSASNLESGVPSRFSGSGSGTDFTLTIDPVEADDIANYYCQQSDELPDTFGAGTKLELK
notes: as for B3
- inhibitory IC50, IL6-dependent TF-1 cell proliferation [2]: 3.95 µg/mL
- EC50 [1]: 0.04 nM
